Columns and labels:
VvEG16 [1] = target: VvEG16 (Vitis vinifera, UniProt F6I323, C21S/DEL151-151/C188S); test: X-ray crystallography, […] Å; type: binding; conditions: co-crystallised with 5 mM; negative subsites
VvEG16 [2] = target: T1, VvEG16 (Vitis vinifera, UniProt F6I323, E88A/DEL151-151); test: X-ray crystallography, […] Å; type: binding; conditions: negative subsites of chain A; from tXyGO mixture
VvEG16 [3] = target: T1, VvEG16; test: X-ray crystallography, […] Å; type: binding; conditions: alpha-anomer, negative subsites of chain A
purified protein [4] = substrate: O=[N+]([O-])c1ccc(O[C@@H]2O[C@H](CO)[C@@H](O[C@@H]3O[C@H](CO)[C@@H](O[C@@H]4O[C@H](CO)[C@@H](O)[C@H](O)[C@H]4O)[C@H](O)[C@H]3O)[C@H](O)[C@H]2O)c([N+](=O)[O-])c1; test: purified protein; conditions: 20 mM sodium citrate, pH 6, 30°C
purified protein [5] = substrate: O=[N+]([O-])c1ccc(O[C@@H]2O[C@H](CO)[C@@H](O[C@@H]3O[C@H](CO)[C@@H](O)[C@H](O)[C@H]3O)[C@H](O)[C@H]2O)c([N+](=O)[O-])c1; test: purified protein; conditions: 20 mM sodium citrate, pH 6, 30°C
[6] = substrate: O=[N+]([O-])c1ccc(O[C@@H]2O[C@H](CO)[C@@H](O[C@@H]3O[C@H](CO)[C@@H](O)[C@H](O)[C@H]3O)[C@H](O)[C@H]2O)c(Cl)c1; test: chromogenic substrate hydrolysis, CNP release; type: biochemical, Vitis vinifera; conditions: 20 mM sodium citrate, pH 6, 30°C
[7] = substrate: O=[N+]([O-])c1ccc(O[C@@H]2O[C@H](CO)[C@@H](O[C@@H]3O[C@H](CO)[C@@H](O[C@@H]4O[C@H](CO)[C@@H](O)[C@H](O)[C@H]4O)[C@H](O)[C@H]3O)[C@H](O)[C@H]2O)c(Cl)c1; test: chromogenic substrate hydrolysis, CNP release; type: biochemical, Vitis vinifera; conditions: 20 mM sodium citrate, pH 6, 30°C
[8] = substrate: O=[N+]([O-])c1ccc(O[C@@H]2O[C@H](CO)[C@@H](O[C@@H]3O[C@H](CO)[C@@H](O[C@@H]4O[C@H](CO)[C@@H](O)[C@H](O)[C@H]4O)[C@H](O)[C@H]3O)[C@H](O)[C@H]2O)cc1; test: chromogenic substrate hydrolysis, PNP release; type: biochemical, Vitis vinifera; conditions: 20 mM sodium citrate, pH 6, 30°C
[9] = substrate: O=[N+]([O-])c1ccc(O[C@@H]2O[C@H](CO)[C@@H](O[C@@H]3O[C@H](CO)[C@@H](O)[C@H](O)[C@H]3O)[C@H](O)[C@H]2O)cc1; test: chromogenic substrate hydrolysis, PNP release; type: biochemical, Vitis vinifera; conditions: 20 mM sodium citrate, pH 6, 30°C
[10] = substrate: O=[N+]([O-])c1ccc(O[C@@H]2O[C@H](CO)[C@@H](O[C@@H]3O[C@H](CO[C@H]4OC[C@@H](O)[C@H](O)[C@H]4O)[C@@H](O[C@@H]4O[C@H](CO[C@H]5OC[C@@H](O)[C@H](O)[C@H]5O)[C@@H](O[C@@H]5O[C@H](CO[C@H]6OC[C@@H](O)[C@H](O)[C@H]6O)[C@@H](O)[C@H](O)[C@H]5O)[C@H](O)[C@H]4O)[C@H](O)[C@H]3O)[C@H](O)[C@H]2O)c(Cl)c1; test: chromogenic substrate hydrolysis, CNP release; type: biochemical, Vitis vinifera; conditions: 20 mM sodium citrate, pH 6, 30°C

OC[C@H]1OC(O)[C@H](O)[C@@H](O)[C@@H]1O[C@@H]1O[C@H](CO[C@H]2OC[C@@H](O)[C@H](O)[C@H]2O)[C@@H](O[C@@H]2O[C@H](CO[C@H]3OC[C@@H](O)[C@H](O)[C@H]3O)[C@@H](O[C@@H]3O[C@H](CO[C@H]4OC[C@@H](O)[C@H](O)[C@H]4O)[C@@H](O)[C@H](O)[C@H]3O)[C@H](O)[C@H]2O)[C@H](O)[C@H]1O (stereo partly drawn) [XXXG]
X-ray crystallography, 1.59 Å (VvEG16 [1]): Fortuitous crystallization of this variant in complex with the heptasaccharide XXXG in the negative subsites
X-ray crystallography, 1.79 Å (VvEG16 [2]): Chain A additionally contained an apparent XXXG moiety in the negative subsites

OC[C@H]1O[C@@H](O[C@@H]2[C@@H](O)[C@H](O[C@H]3[C@H](O)[C@@H](O)[C@H](O[C@H]4[C@H](O)[C@@H](O)C(O)O[C@@H]4CO)O[C@@H]3CO)O[C@H](CO)[C@H]2O)[C@H](O)[C@@H](O)[C@@H]1O (stereo partly drawn) [G3GGG, β-D-Glcp-(1,3)-β-D-Glcp-(1,4)-β-D-Glcp-(1,4)-β-D-Glcp]
X-ray crystallography, 1.65 Å (VvEG16 [3]): presence of the α-anomer of G3GGG in the negative subsites

B1: VvEG16 (Vitis vinifera; DEL151-151) (protein)
chain: MADPSLHHEAQPLKFIAVDYCPESCTHSPESSTITLTFDHRGGSRWRSTTRFQYGTFSSLIQCPKGNTSGLNFNIYLSSLEGDKSQDEIDFEFLGKDKRIVQTNYYTAGTGNREAIHDLGFDCSDGFHEYVIKWGPDLIQWLIDGKVIRSVRADGEGFPQKPMFLYASVWDASYIDEGRWTGPYVGCDAPYICLYKNVNVPVGTAVE
Km (purified protein [4]): 800 ± 60 µM
kcat (purified protein [4]): 1.58 ± 0.0333 s⁻¹
kcat/Km (purified protein [4]): 2000 M⁻¹ s⁻¹
Km (purified protein [5]): 2000 ± 200 µM
kcat (purified protein [5]): 0.333 ± 0.0167 s⁻¹
kcat/Km (purified protein [5]): 170 M⁻¹ s⁻¹
Km [6]: 3500 ± 400 µM
kcat [6]: 0.0075 ± 0.000333 s⁻¹
kcat/Km [6]: 2.1 M⁻¹ s⁻¹
Km [7]: 1100 ± 100 µM
kcat [7]: 0.0172 ± 0.000667 s⁻¹
kcat/Km [7]: 16 M⁻¹ s⁻¹
Km [8]: 2800 ± 200 µM
kcat [8]: 0.0025 ± 0.0001 s⁻¹
kcat/Km [8]: 0.9 M⁻¹ s⁻¹
Km [9]: 5900 ± 600 µM
kcat [9]: 0.000383 ± 3.33e-05 s⁻¹
kcat/Km [9]: 0.065 M⁻¹ s⁻¹

B2: VvEG16 (Vitis vinifera) (protein)
chain: MADPSLHHEAQPLKFIAVDYCPESCTHSPESSTITLTFDHRGGSRWRSTTRFQYGTFSSLIQCPKGNTSGLNFNIYLSSLEGDKSQDEIDFEFLGKDKRIVQTNYYTAGTGNREAIHDLGFDCSDGFHEYVIKWGPDLIQWLIDGKVIRSVVRADGEGFPQKPMFLYASVWDASYIDEGRWTGPYVGCDAPYICLYKNVNVPVGTAVE
Km [10]: 1100 ± 300 µM
kcat [10]: 0.2 ± 0.00833 s⁻¹
kcat/Km [10]: 180 M⁻¹ s⁻¹
Km [7]: 800 ± 100 µM
kcat [7]: 0.0163 ± 0.0005 s⁻¹
kcat/Km [7]: 20 M⁻¹ s⁻¹
